According to IntAct's records for PubMed 31515488:

B1: Spermatogenic leucine zipper protein 1 (Homo sapiens), Q9BXG8 (parent)
chain: MASSAKSAEMPTISKTVNPTPDPHQEYLDPRITIALFEIGSHSPSSWGSLPFLKNSSHQVTEQQTAQKFNNLLKEIKDILKNMAGFEEKITEAKELFEETNITEDVSAHKENIRGLDKINEMLSTNLPVSLAPEKEDNEKKQEMILETNITEDVSAHKENIRGLDKINEMLSTNLPVSLAPEKEDNEKKQQMIMENQNSENTAQVFARDLVNRLEEKKVLNETQQSQEKAKNRLNVQEETMKIRNNMEQLLQEAEHWSKQHTELSKLIKSYQKSQKDISETLGNNGVGFQTQPNNEVSAKHELEEQVKKLSHDTYSLQLMAALLENECQILQQRVEILKELHHQKQGTLQEKPIQINYKQDKKNQKPSEAKKVEMYKQNKQAMKGTFWKKDRSCRSLDVCLNKKACNTQFNIHVARKALRGKMRSASSLR
partner: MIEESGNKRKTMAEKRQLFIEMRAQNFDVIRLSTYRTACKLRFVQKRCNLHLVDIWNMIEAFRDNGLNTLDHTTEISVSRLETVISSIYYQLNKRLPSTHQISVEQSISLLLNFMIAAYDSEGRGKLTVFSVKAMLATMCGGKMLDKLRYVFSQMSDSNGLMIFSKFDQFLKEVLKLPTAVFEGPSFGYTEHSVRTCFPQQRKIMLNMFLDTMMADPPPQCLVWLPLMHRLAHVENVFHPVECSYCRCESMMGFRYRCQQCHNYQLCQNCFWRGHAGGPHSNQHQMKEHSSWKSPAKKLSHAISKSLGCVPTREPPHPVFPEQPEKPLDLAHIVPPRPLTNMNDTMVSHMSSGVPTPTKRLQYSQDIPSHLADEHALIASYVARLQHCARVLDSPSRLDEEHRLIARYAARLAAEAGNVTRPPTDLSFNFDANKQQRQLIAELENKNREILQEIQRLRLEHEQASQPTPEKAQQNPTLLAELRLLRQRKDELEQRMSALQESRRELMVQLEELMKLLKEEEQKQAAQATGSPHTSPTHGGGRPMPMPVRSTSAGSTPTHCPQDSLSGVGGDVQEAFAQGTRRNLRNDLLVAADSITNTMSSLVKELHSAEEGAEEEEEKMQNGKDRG
B2: Modulator of apoptosis 1 (Homo sapiens), Q96BY2 (parent)
chain: MTLRLLEDWCRGMDMNPRKALLIAGISQSCSVAEIEEALQAGLAPLGEYRLLGRMFRRDENRKVALVGLTAETSHALVPKEIPGKGGIWRVIFKPPDPDNTFLSRLNEFLAGEGMTVGELSRALGHENGSLDPEQGMIPEMWAPMLAQALEALQPALQCLKYKKLRVFSGRESPEPGEEEFGRWMFHTTQMIKAWQVPDVEKRRRLLESLRGPALDVIRVLKINNPLITVDECLQALEEVFGVTDNPRELQVKYLTTYQKDEEKLSAYVLRLEPLLQKLVQRGAIERDAVNQARLDQVIAGAVHKTIRRELNLPEDGPAPGFLQLLVLIKDYEAAEEEEALLQAILEGNFT
partner: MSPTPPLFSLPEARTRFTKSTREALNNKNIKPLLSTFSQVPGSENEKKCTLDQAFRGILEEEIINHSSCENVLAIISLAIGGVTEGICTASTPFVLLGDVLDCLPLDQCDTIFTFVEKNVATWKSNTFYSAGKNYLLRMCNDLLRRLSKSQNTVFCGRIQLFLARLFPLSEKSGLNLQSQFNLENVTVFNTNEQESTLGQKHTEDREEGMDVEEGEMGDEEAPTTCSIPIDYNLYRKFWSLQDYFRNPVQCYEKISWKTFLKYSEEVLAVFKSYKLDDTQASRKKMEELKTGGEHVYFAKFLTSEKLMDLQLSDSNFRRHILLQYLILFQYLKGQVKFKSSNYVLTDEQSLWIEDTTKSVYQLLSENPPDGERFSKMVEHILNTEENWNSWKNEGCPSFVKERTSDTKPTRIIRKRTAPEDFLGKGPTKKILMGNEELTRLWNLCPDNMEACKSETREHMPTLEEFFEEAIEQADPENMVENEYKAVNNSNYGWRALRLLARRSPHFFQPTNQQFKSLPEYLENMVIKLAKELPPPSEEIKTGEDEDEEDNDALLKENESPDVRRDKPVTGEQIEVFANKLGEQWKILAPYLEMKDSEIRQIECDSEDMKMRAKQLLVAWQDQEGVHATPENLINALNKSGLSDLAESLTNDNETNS
B3: E3 ubiquitin-protein ligase LNX (Homo sapiens), Q8TBB1 (parent)
chain: MNQPESANDPEPLCAVCGQAHSLEENHFYSYPEEVDDDLICHICLQALLDPLDTPCGHTYCTLCLTNFLVEKDFCPMDRKPLVLQHCKKSSILVNKLLNKLLVTCPFREHCTQVLQRCDLEHHFQTSCKGASHYGLTKDRKRRSQDGCPDGCASLTATAPSPEVSAAATISLMTDEPGLDNPAYVSSAEDGQPAISPVDSGRSNRTRARPFERSTIRSRSFKKINRALSVLRRTKSGSAVANHADQGRENSENTTAPEVFPRLYHLIPDGEITSIKINRVDPSESLSIRLVGGSETPLVHIIIQHIYRDGVIARDGRLLPGDIILKVNGMDISNVPHNYAVRLLRQPCQVLWLTVMREQKFRSRNNGQAPDAYRPRDDSFHVILNKSSPEEQLGIKLVRKVDEPGVFIFNVLDGGVAYRHGQLEENDRVLAINGHDLRYGSPESAAHLIQASERRVHLVVSRQVRQRSPDIFQEAGWNSNGSWSPGPGERSNTPKPLHPTITCHEKVVNIQKDPGESLGMTVAGGASHREWDLPIYVISVEPGGVISRDGRIKTGDILLNVDGVELTEVSRSEAVALLKRTSSSIVLKALEVKEYEPQEDCSSPAALDSNHNMAPPSDWSPSWVMWLELPRCLYNCKDIVLRRNTAGSLGFCIVGGYEEYNGNKPFFIKSIVEGTPAYNDGRIRCGDILLAVNGRSTSGMIHACLARLLKELKGRITLTIVSWPGTFL
partner: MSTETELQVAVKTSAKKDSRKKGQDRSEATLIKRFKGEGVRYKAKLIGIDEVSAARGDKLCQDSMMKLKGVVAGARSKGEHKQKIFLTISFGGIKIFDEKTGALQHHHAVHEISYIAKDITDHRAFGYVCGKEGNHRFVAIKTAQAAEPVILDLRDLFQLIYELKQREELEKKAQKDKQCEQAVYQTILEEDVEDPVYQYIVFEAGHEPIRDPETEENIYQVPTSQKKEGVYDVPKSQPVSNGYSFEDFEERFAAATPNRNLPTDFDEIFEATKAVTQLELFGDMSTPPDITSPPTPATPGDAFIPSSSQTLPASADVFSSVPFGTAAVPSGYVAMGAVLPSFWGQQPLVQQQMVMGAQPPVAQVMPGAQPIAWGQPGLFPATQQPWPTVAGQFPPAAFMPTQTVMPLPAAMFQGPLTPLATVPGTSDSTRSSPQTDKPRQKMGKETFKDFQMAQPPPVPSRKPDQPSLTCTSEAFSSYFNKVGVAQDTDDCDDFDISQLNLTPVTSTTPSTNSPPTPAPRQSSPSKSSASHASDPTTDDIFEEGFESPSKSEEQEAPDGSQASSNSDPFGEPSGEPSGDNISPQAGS
B4: Elongin-A2 (Homo sapiens), Q8IYF1 (parent)
chain: MAAGSTTLHAVEKLQVRLATKTEPKKLEKYLQKLSALPMTADILAETGIRKTVKRLRKHQHVGDFARDLAARWKKLVLVDRNTRPGPQDPEESASRQRFGEALQDQEKAWGFPENATAPRSPSHSPEHRRTARRTPPGQQRPHPRSHSREPRAERKCPRIAPADSGRYRASPTRTAPLRMPEGPEPAAPGKQPGRGHTHAAQGGPLLCPGCQGQPQGKAVVSHSKGHKSSRQEKRPLCAQGDWHSPTLIREKSCGACLREETPRMPSWASARDRQPSDFKTDKEGGQAGSGQRVPALEEAPDSHQKRPQHSHSNKKRPSLDGRDPGNGTHGLSPEEKEQLSNDRETQEGKPPTAHLDRTSVSSLSEVEEVDMAEEFEQPTLSCEKYLTYDQLRKQKKKTGKSATTALGDKQRKANESKGTRESWDSAKKLPPVQESQSERLQAAGADSAGPKTVPSHVFSELWDLSEAWMQANYDPLSDSDSMTSQAKPEALSSPKFREEAAFPGRRVNAKMPVYSGSRPACQLQVPTLRQQCAQVLRNNPDALSDVGEVPYWVLEPVLEGWRPDQLYRRKKDNHALVRETDELRRNHCFQDFKEEKPQENKTWREQYLRLPDAPEQRLRVMTTNIRSARGNNPNGREAKMICFKSVAKTPYDTSRRQEKSAGDADPENGEIKPASKPAGSSHTPSSQSSSGGGRDSSSSILRWLPEKRANPCLSSSNEHAAPAAKTRKQAAKKVAPLMAKAIRDYKRRFSRR

Variants of: B1
Conditions: with dtnb_human DTNB

| Variant | effect of a mutation on the interaction |
| --- | --- |
| E9K | with no effect |
| H301P | with no effect |

Variants of: B2
Conditions: with thoc1_human THOC1, Q96FV9

| Variant | effect of a mutation on the interaction |
| --- | --- |
| R57K | with no effect |

Variants of: B3
Conditions: with dab1_human DAB1, O75553

| Variant | effect of a mutation on the interaction |
| --- | --- |
| R342H | with no effect |

Variants of: B4
Conditions: with traf2_human TRAF2, Q12933
Chain of traf2_human TRAF2, Q12933 (Q12933 whole entry): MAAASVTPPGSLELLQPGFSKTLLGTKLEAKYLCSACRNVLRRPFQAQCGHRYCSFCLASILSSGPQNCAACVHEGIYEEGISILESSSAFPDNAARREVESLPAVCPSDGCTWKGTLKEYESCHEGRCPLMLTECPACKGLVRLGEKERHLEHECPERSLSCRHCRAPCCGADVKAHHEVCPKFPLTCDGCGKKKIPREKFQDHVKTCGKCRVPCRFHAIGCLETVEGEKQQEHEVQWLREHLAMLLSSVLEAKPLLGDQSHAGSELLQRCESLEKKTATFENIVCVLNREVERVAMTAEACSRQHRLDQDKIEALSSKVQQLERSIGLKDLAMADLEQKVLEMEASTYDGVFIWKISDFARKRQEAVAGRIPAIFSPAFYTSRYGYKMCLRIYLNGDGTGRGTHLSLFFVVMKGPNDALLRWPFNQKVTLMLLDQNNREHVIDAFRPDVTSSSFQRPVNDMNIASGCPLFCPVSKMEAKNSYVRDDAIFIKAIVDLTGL

| Variant | effect of a mutation on the interaction |
| --- | --- |
| C254F | with no effect |
| G505R | with no effect |
| A446T | with no effect |
| T6S | with no effect |
| A403S | with no effect |
| R498Q | with no effect |
| R179P | with no effect |
| D302H | with no effect |
